Measured values: PMC8159449

Biological target: T1, retinoblastoma protein (RB) (Homo sapiens, UniProt P06400 1-928)
T1 sequence: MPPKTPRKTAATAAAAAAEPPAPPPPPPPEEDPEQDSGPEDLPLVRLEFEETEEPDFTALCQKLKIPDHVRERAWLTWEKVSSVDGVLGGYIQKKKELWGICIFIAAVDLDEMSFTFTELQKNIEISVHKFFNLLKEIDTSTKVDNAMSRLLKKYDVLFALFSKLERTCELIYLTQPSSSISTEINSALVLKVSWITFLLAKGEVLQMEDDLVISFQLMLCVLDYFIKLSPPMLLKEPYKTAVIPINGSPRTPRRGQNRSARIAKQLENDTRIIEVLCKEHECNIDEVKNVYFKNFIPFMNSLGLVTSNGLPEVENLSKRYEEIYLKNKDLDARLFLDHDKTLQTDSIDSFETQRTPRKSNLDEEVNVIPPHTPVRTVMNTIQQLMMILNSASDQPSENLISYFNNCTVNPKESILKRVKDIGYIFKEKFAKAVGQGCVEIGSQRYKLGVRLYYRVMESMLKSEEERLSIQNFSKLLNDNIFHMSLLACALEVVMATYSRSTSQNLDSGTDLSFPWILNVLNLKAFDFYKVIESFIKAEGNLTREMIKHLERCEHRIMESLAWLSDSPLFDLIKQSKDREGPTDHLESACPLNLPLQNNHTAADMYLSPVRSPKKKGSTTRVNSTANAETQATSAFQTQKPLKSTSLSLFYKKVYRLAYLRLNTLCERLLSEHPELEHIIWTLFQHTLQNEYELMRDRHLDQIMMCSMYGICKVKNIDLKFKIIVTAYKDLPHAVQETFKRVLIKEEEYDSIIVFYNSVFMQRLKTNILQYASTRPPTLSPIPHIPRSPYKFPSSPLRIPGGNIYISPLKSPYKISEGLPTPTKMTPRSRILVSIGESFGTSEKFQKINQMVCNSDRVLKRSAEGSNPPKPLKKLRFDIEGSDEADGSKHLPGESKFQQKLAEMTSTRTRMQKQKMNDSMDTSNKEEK
Assay: ELONA

## GGAGGGUGGAGGGAAGGG (structured_RNA) [18E16]
  Kd: 5.1 ± 0.7 nM
